Target: full-length extracellular region of human FGFR1 (human) (UniProt P11362)
Test: BLI, target binding to sensor-immobilized Fab

B1: Library-S Fab against FGFR1 (Fab, V domains shown)
VH: EVQLVESGGGLVQPGGSLRLSCAASGFTFSSYGMHWVRQAPGKGLEWVAVISYDGSNKYYADSVKGRFTISRDNSKNTLYLQMNSLRAEDTAVYYCARSGRYGTYKGDFDYWGQGTLVTVSS
VL: DIQMTQSPSSLSASVGDRVTITCRASQGISNYLAWYQQKPGKAPKLLIYAASSLQSGVPSRFSGSRSGTDFTLTISSLQPEDFATYYCQQSYRSPLTFGQGTKVEIK
**Q.** How did the Kd turn out when B1 was run?
**A.** Its Kd is 22.4 nM.

Source: patent US20200207868A1
